This note sets out measurements from patent publication US20200140557A1 (published 2020).

This assay concerns the target T1, human FGFR1b extracellular domain.
T1 chain: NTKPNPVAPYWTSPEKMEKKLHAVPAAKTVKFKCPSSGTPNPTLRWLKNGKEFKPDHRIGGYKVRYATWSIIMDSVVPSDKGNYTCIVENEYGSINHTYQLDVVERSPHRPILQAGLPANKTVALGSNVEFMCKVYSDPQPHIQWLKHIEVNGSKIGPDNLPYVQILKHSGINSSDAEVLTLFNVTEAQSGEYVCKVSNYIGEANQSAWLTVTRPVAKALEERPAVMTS
Description: SPR.

B1: R1MAb1 (antibody)
chain 1: EVQLVESGGGLVQPGGSLRLSCAASGFTFTSTWISWVPGKGLEWVGEIDPYDGDTYYADSVKGRFTISADTSKNLQMNSLRAEDTAVYYCASSGYGGSDYAMDYWGQ
chain 2: DIQMTQSPSSLSASVGDRVTITCRASQDVSTAVAWYQQKPGKAPKLLIYSASFLYSGVPSRFSGSGSGTDFTLTISSLQPEDFATYYCQQSYTTPPTFGQGTKVEIKR
B1 gave a Kd of 0.59 nM. This lies in the sub-nanomolar range.

B2: R1MAb2 (antibody)
chain 1: EVQLVESGGGLVQPGGSLRLSCAASGFTFSNNYIHWVPGKGLEWVADIYPNDGDTDYADSVKGRFTISADTSKNLQMNSLRAEDTAVYYCAREHFDAWVHYYVMDYWGQ
chain 2: B1 chain 2
On to B2, for which binding was characterised by a dissociation constant (Kd) of 0.44 nM.
